Paper PMC8809517, “Cofactor-independent RNA editing by a synthetic S-type PPR protein”
Changes are numbered by the printed parent chain.

Experiments:
Assay in all cases: high-throughput RNA pulldown from lysate on Ni-NTA beads; HRP: 50 mM Tris pH 8, 150 mM NaCl, 1 mM beta-mercaptoethanol, 50 ug/ml BSA, 3 ug/ml yeast RNA, 0.5% heparin; ITC and FP: Tris pH 8, 200 mM KCl, 5% glycerol; MST: 50 mM Tris pH 8, 200 mM NaCl, 1 mM DTT, BSA, heparin, 0.05% Tween 20
Details in all cases: tags: N-terminal His-eGFP
[1] = molecular target: T1, GFP-9S library array, motif 4 ND N98D;D124Q (synthetic construct, N98D;D124Q)
T1 chain: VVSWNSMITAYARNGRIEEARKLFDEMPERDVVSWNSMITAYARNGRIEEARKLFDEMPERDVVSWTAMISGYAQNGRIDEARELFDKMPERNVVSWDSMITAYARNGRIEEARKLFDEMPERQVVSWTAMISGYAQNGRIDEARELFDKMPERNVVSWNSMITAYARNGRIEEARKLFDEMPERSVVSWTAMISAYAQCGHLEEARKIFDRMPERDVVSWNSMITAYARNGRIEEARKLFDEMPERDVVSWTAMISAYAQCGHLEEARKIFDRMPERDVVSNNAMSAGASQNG

[2] = molecular target: T2, GFP-9S library array, motif 4 ND D124G (synthetic construct, D124G)
T2 chain: T1 chain with D98N, Q124G

[3] = molecular target: T3, GFP-9S library array, motif 4 ND D124H (synthetic construct, D124H)
T3 chain: T1 chain with D98N, Q124H

[4] = molecular target: T4, GFP-9S library array, motif 4 ND N98T;D124Q (synthetic construct, N98T;D124Q)
T4 chain: T1 chain with D98T

[5] = molecular target: T5, GFP-9S library array, motif 4 ND N98E;D124L (synthetic construct, N98E;D124L)
T5 chain: T1 chain with D98E, Q124L

Binder | Kd ([1]; label: 5' Cy5) [nM] | Kd ([2]; label: 5' Cy5) [nM] | Kd ([3]; label: 5' Cy5) [nM] | Kd ([4]; label: 5' Cy5) [nM] | Kd ([5]; label: 5' Cy5) [nM] | Kd ([1]; label: 5' IRDye 800CW) [nM] | Kd ([2]; label: 5' IRDye 800CW) [nM] | Kd ([3]; label: 5' IRDye 800CW) [nM] | Kd ([4]; label: 5' IRDye 800CW) [nM] | Kd ([5]; label: 5' IRDye 800CW) [nM]
AUUACACGUGA (ssRNA) [Cy5-rpoA] | 369 | 30.7 | 166 | 157 | 63.1 |  |  |  |  | 
AUUAGACGUGA (ssRNA) [Cy5-rpoA-G] | 270 | 445 | 287 | 128 | 69 |  |  |  |  | 
AUUAAACGUGA (ssRNA) [IR-rpoA-A] |  |  |  |  |  | 973 | 136 | 285 | 107 | 147
AUUAUACGUGA (ssRNA) [IR-rpoA-U] |  |  |  |  |  | 803 | 30.7 | 40.7 | 194 | 196
